The values that follow come from publication doi:10.1101/2025.03.16.643581.

This assay has as its target CDKL5-PBM peptide, WT (FITC-labeled) (human). The experiment in a line: fluorescence polarisation. (Fluorescence polarisation rises when a labelled molecule tumbles more slowly, as on binding a larger partner.)
In the case of PSD95 PDZ1 domain (domain or fragment), the Kd came out at 146 µM.

PSD95 PDZ2 domain (domain or fragment) showed an equilibrium dissociation constant (Kd) of 40.8 µM.

Take PSD95 PDZ3 domain (domain or fragment): the Kd came to 13.3 µM.

As a reminder, the Kd is the concentration at which binding is half-saturated. Lower therefore signals a tighter complex.
